Values quoted from earlier work as cited in paper PMC2656448.

Target: Histone H3 (H3K4me0) (Homo sapiens) (UniProt P68431)

- Kd: 5 µM
Substance: AIRE PHD1 (from UniProt O43918)
